Assay: yeast display, Sf9 membrane polyspecificity reagent, FACS + sequencing; frameworks hold sequencing errors
Procedure, shortened: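 After 36–48 hours of galactose induction, yeast (Saccharomyces cerevisiae BJ5465) displaying a synthetic nanobody library were stained at 4 °C for 1 hour with 10% biotinylated, detergent-solubilized Sf9 membrane reagent. Streptavidin microbeads enriched the stained cells before FACS sorting into low and high (top ~1%) gates on anti-HA and streptavidin fluorescence. Each clone's polyreactivity label reflects its gate of origin.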

QVQLVESGGGLVQAGGSLRLSCAASGRIFRPNAMGWYRQAPGKERELVAAISYSGATTYYADSVKGRFTISRDNAKNTVYLQMNSLKPEDTAVYYCAADTPDAPDYSGFYYWGQGTKVTVSS
polyreactivity (PSR sort gate): low polyreactivity

QVQLVESGGGLVQAGGSLRLSCAASGSTLRGYAMGWYRQAPGKERELVARITSGGRTSYADSVKGRFTISRDNAKNTVYLQMNSLKPEDTAVYYCATRIYGWSFGSWYKYDYWGQGTQVTVSS
polyreactivity (PSR sort gate): low polyreactivity

QVQLVESGGGLVQAGGRLRLSCAASGSTSQSNAMGWYRQAPGKERELVAAISWSGTSTYYADSVKGRFTISRDNAKNTVYLQMNSLKPEDTAVYYCAADYIFDYDYWGQGTQVTVSS
polyreactivity (PSR sort gate): low polyreactivity

QVQLVESGGGLVQPGGSLRLSCAASGSTFDWYAMAWYRQAPGKQRELVAAISSDDSTYYADSVKGRFTISRDNAKNTVYLQMNSLKPEETAVYYCAFDVYSDYGDYGFWGQGTQVTVSS
polyreactivity (PSR sort gate): low polyreactivity

QVQLVESGGGLVQAGGSLRLSCGASGSTFYYYTMGWYRQAPGKERELVAAISFIGGSTYYADSVKGRFTISRDNAKNTVYLQMNSLKPEDTAVYYCAAEFYGLVSLSFSYDYWGQGTQVTVSS
polyreactivity (PSR sort gate): low polyreactivity

QVQLVESAGGLVQAGGSLRLSCAASGYTFDFYAMGWYRQAPGKERELVAAISKNDGTTYYADSVKGRFTISRDNAKNTVYLQMNSLKPEDTAVYYCAAESGYPVYTYVSSGDYWGQGTQVTVSS
polyreactivity (PSR sort gate): low polyreactivity

QFQLVESGGGLVQAGGSLRLSCAASGVSNALGWYRQAPGKERELVAAISRSGGSTYYADSVKGRFTISRANAKNTVNLQMNSLKPEDTAVYYCAVGYTYVYRYSSHKYDYWGEGTQVTVSS
polyreactivity (PSR sort gate): high polyreactivity

QVQLVESGGGLVQAGGSLRLSCAASGSILEIYAMGWYRPAPGKEREFVASISWDVSSTYYADSVKGRFTISRDNAKNTVYLQMNSLKPEDTAVYYCATSLVWGLYDWYYDLSAAFDYWGQGTQVTVSS
polyreactivity (PSR sort gate): low polyreactivity

QVQLVESGGGLDQAGGSLRLSCAASGSIFGFYAMGWSRQAPGKERELVAAITWRGGSTYYADSVKGRFTISRDNAKNTVYLQMTILKPEDTAVYYCAATSARRQTYNFAKYDYWGQGTQVTLSS
polyreactivity (PSR sort gate): low polyreactivity

QVQLVESGGGLVQAGGSLRLSCAASGRTFASYAMGWYRKAPGKETELVATISSGDSTYADSVKGRFTISRDNAKITVYLQRNRLKPEDTAVYYCAAASDLPGTCGYDYWGQGTQVTVSS
polyreactivity (PSR sort gate): low polyreactivity

QVQLVESGGALVQAGGSLRLSSAASGITFSRYAMGWYRQAPGKERELVARISSSGGSTNYADSVKGRFTISRDNAKNTVYLQMNSLKPEDTAVYYCAGATRGKVARRVTFDYWGQGTQVTVSS
polyreactivity (PSR sort gate): high polyreactivity

QVQLVESGGGLVQAGGSLRLSCAASGITFGIYAMGWDRQAPGKERELVAAISLSGGSTYYADSVKGRFTISRDNAKNTVYLQMNSVKPEDTAVYYCNARRNRYGEYYWGQGTQVTVSS
polyreactivity (PSR sort gate): high polyreactivity

QVQLVESGGGLVQAGGSLRLSCAASGSTFIDYAMGWYRQAHGKERELVAGISSGDSTDYADSVKGRFTISRDNAKNTVYLQMNSLKPEDTAVYYCNADWNPTERWFYWYTPLGYDYWGQGTQVTVSS
polyreactivity (PSR sort gate): low polyreactivity

QVQLVESGGGLVQAGGSLRLSCAASGRTFPYNARGWYRQAPGKERELVAAISSRGGSTYYADSVKGRFTISRDNAKNTVYLQMNSLKPEDTAVYYCAAQFRFSGMGYWGQGTQVTVSS
polyreactivity (PSR sort gate): high polyreactivity

QVQLVESGGGLVQAGGSLRLSCAASGSIFNRYAIGWYRQAPGKERELFAAISSTGSTYYADSVKGRFTISRDNAKKTVYLQMNRLKPEDTAVYYCNADVLALAPYDYWGQGTQVNVSS
polyreactivity (PSR sort gate): low polyreactivity

QVQLVESGGALVQAGGSLRLSCAASGRTFVSYVMGWYRQAPGKEREMVAAISGNGGRTYYADSVKGRFTISRDYAKKTVYLQMNSLKPEDTAVFYCAAELFVSYFDVLMYYWGQGTQVTVSS
polyreactivity (PSR sort gate): high polyreactivity

QVQLVESGGGLVQAGGSLRLSCAASRFTIIPYDMGRYRQAPGKERELVATISRGGSTNYADSVKGRFTISRENAKNTVYLQMNSLKPEDTAVYYCAAEYKVVFSQPYCEYDYWGQGTQVTVSS
polyreactivity (PSR sort gate): low polyreactivity

QVQLVESGGGLVQAGGSLRLSCAASGFIFGYYAMGWYRQAPGKERELVARITSSGGSTYYADSVKGRFTISRDNAKNTVYLQMNSLKPEDTAVYYCAKSPRAPRYIPYGYWGQGTQVTVSS
polyreactivity (PSR sort gate): high polyreactivity

QVQLGESGGGLVQAGGSLRLSCAASGRISGYAMGWYRQAPGKERELVAAISKSAARTYYADSVKGRFTISRDNAKNTVYLQMNSLKPEDTAVYYCAADKPYRYDYWGQGTQVTLSS
polyreactivity (PSR sort gate): high polyreactivity

QVQLVESGGGLVQAGGSLRLSCAASGRIFERYAMGWYRQAPGKERELVAGISISGGGTYYADSVKGRFTISRDNAKNTFYLQMNSLNPEDTAVYYCSATFPREEYGYWGQGTQVTVSS
polyreactivity (PSR sort gate): low polyreactivity

QVHLVESGGGLVQAGGSLRLSCAASGRIFVTYAMGWYRQAPGKERELVAAIPWDGDSTYYADSVKGRFTFSRDNAKNTVYLQMNSLKREDTAVYYCNAKKFNSHVELGYDYWGQGTQVTVSS
polyreactivity (PSR sort gate): low polyreactivity

QVQLQESGGGLVQAGGSLRLSCAASGNISPQLYMGWYRQAQGKEREFVAAIAEGSTTYYAESVKGRFTISRDDAKNTVYLQINSLKSEDTAVYYCAARYENAESFYYWGQGSQVTVSS
polyreactivity (PSR sort gate): high polyreactivity

QVQLVEAGGGLVQAGGSLRLSCAASGFILENYAMGWNRQAPGKERELVAAISGSGGTTYYADSVKGRFTISRDNAKNTVYLQMNSLKPEDTAVYYCNRDRLLRQYDYWGQGTQVTVSS
polyreactivity (PSR sort gate): high polyreactivity

QVQLVESGGGLVQAGGSLRLSCAASGSTFDQYAMGWYRQAPGKERELVAAISWSGGRTSYAVSVKGRFTISRDTAKNTVYLQMNSLKPEDTAVYYCAADLWFWGFHYPSRMDYWGQGTQVTVSS
polyreactivity (PSR sort gate): high polyreactivity

QVQLVESGVGLVQAGGSLRLSCAASGLTFPWYTMGWNRQAPGKERELVAAINSRGGSTYYADSVKGRFTISRDNAKNTVYLQMNRLKPVDTAVYYCATRSFGRMDYWGQGTQVTVSS
polyreactivity (PSR sort gate): high polyreactivity

QVQLVESGGGLVQAGGSLRLSCAASGLTFAVYAMGWYRQAPGKERELVAAITYSGSRTYYADSVKGRFTISRDNAKNTVYLQMNSLKPEDTAVYYCNALYRRDIKFYYWGQGTQVTVSS
polyreactivity (PSR sort gate): high polyreactivity

QVQLLESGGGLVLAGGSLRLSCAASGFIIRPYAIGWYRQAPGKERELVAAITYSSGSTYYADSVKGRFTISRDNAKYTVYLEMNSLKPEDTAVYYCNAEFWYETLYEYDYWGQGTQLTVSS
polyreactivity (PSR sort gate): high polyreactivity

QVQLVESGGALVQAGGSLRLSCAASGITFEVYAMGLYRQAPGKAREFVAAITGSGSRTYYADSVKGRFTISRDNAKNTVYLQMNSLKPEDTAVYYCAVKGFSTRSYREFDYWAQGTQVTVSS
polyreactivity (PSR sort gate): low polyreactivity

QVQLVESGGGLVQAGGSLRLSCAASGFTFYPYAMGWYRQAPGKERELVARITWSGGSTSYADSVKGRFTISRDNAKNTVYLQMNSLKPEDTAVYYCSKAYHHSEFDYWGLGTQVTVSS
polyreactivity (PSR sort gate): high polyreactivity

QVQLVESGGGLVQAGGSLRLSCAASGRIFYYYTMGWYRQAPGKERELVAALTRSGSSTYADSVKGRFTISRDNAKNTVYLQMNSLKAEVTAVYYCAADYIRRYDYWGQGTQVTVSS
polyreactivity (PSR sort gate): low polyreactivity

QVQLVESGGGLFQAGGSLRLSCAASGFIFGQNAMGWYRQAPGKERELVAAIDWTGGRTYYADSVKGRFTISRDNAKNTVYLQMNSLKPEDTAVYYCAADGVWYADSPYSIHYGYWGQGTQVTVSS
polyreactivity (PSR sort gate): low polyreactivity

QVQLVESGGGLVQAGGSLRLTCAASGRTFQYYVMVWYRQAPGKEREFVAAISTSGGRTYYADSVKGRFTISRDNAKNSVYLQMNSLKPEATAVYYCAATGFSYRYFQTRDYWGQGTQVTVSS
polyreactivity (PSR sort gate): high polyreactivity

QVQIVESGGGLVQAGGSLRLSCAASGRTFFPYAMGWYRQAPGKEREFVAAITKTDDSTYYADSVKGRFTISRDNAKNTVYLQMNSLKPEDTAVYYCAADRSISADYVVSVDYDYWGQGTQVTVSS
polyreactivity (PSR sort gate): low polyreactivity

QVQLVESGGGLVQAGGSLRLSCAASGFIFEWNAMGWYRQAPGKERELVASITFGGGNTYYADSVKGRFTISRDNAKNTVYLQMNSLKPEDTAVYYCAADDGVTYRGIIFSYLGQGTQVTVSS
polyreactivity (PSR sort gate): low polyreactivity

QVQLVESGGGLVQAGGSLRVSCAASGFTFYLYAMGWYRQAPGKERELVAAITWSGGRTYYADSVKGRFTISRDNAKNTVYLQMNSLKPEDTAVYNCAAVVRKQLSAPSDYWGQGTQVTVSS
polyreactivity (PSR sort gate): high polyreactivity

QVQLVESCGGLVQAGGSLRLSCAASGLIFRPNAMGWYRQAPAKERELVAAISGGGGSTYYADSVKGRFTISRDNAKNTVYLQMKSLKPEDTAVYYCNARKLVNRYPVIGVETYDYWGQGTQVTVSS
polyreactivity (PSR sort gate): low polyreactivity

QVQLVESGGGLVQAGGSLRLSCAASGFIFAEYAMGWSRQAPGQEREFVATINIGGSTYYADSVKGRFTISRDNAKNTVYLQMNSLKPEDTAVYYCAAEFWWGDGSQGIYDYDYWGQGTQVTVSS
polyreactivity (PSR sort gate): low polyreactivity

QVQLVESGGGLVQAGGSLRLSCAASGSTFVTYTMGWYRQAPGKERELVAAISWSGDTTYADSVKGRFTISRDNAKNTVYLQMNSLKPEDTAVYYCAADDDWSGVEFDYWGQGTQVTVSS
polyreactivity (PSR sort gate): low polyreactivity

QYQLVESGGGLVQAGGSLRLSCAASGFIFSTNAMGWYRQAPGKERELVAAISRRGGNTYYADSLKGRFTISRDNAKNTVYLQMNSLKPEDTAVYYCAKRGVYGYRYYYWGQGTQVTVSS
polyreactivity (PSR sort gate): high polyreactivity

QVQLVESGGGLVQAGGSLRLSCAASGFIFRYYAMGWARQAPAKERELVAAISWSGTRTFYADSVKARFTISRDNAKNTVYLQMNSLKPEDTAVYYCAAETTGYDSYIQYEYWGQGTQVTVSS
polyreactivity (PSR sort gate): high polyreactivity

QVQLVESGGGLVQAGGSLRLSCAASGSTFRRYAMGWYRQAPGKEREFVAAITWSGGNTYADSVKGRFTISRDNAKNTVYLQMNSLKPEDTAVYYCAVQLVYDHYRYDYWGQGTQVTVSS
polyreactivity (PSR sort gate): high polyreactivity

QVQLVESGGGLVQAGGSLRLSCAASGRTFRGNAMGWYRQAPGKERELVAAIRYRGGSTYYADSVKGRFTISRDNAKNTVYLQMNSLKPEDTAVYYCARRYTVHTQHYDYWGQGTQVTVSS
polyreactivity (PSR sort gate): high polyreactivity

QVQLEESGGGLVQAGGSLRLSCAASGFTLPANGMGWYRQAPGKERELVAAISFIAGSTYYADSVKGRFTISRDNAKNTVYLQMNSLKPEDTAVYYCSTQFPPSTIYDYWGQGTQVTVSS
polyreactivity (PSR sort gate): low polyreactivity
